The values that follow come from US20060008800A1 (published 2006).

One test concerns the target Ca2+/Calmodulin (UniProt P0DP23 2-149). Put plainly: tryptophane fluorescence, 10 µM peptide, equimolar Calmodulin, excess calcium.
For test [1], the target named is Apocalmodulin (Calcium-free Calmodulin) (UniProt P0DP23 2-149). Briefly: tryptophane fluorescence, 10 µM peptide, equimolar Apocalmodulin, 1 mM EGTA.

B1: Munc13-1 peptide reflecting the Calmodulin binding site of rat Munc13-1 (peptide)
peptide: CRAKANWLRAFNKVRMQLQEAR
notes: Synthesized and purified by standard procedures; used at 10 uM in the tryptophane fluorescence assay; also called peptide 13-1; Munc13-1 derived peptide
Consider B1, for which the binding result (with Ca2+/Calmodulin; in test [1]) was “binds” each time.
